According to patent publication EP4062934A1 (CentricsBio, Inc., dated 2022):

Target: T1, CD300c antigen (UniProt Q08708 21-183, limits assumed)
T1 construct: also called CD300c protein
T1 sequence (looked up): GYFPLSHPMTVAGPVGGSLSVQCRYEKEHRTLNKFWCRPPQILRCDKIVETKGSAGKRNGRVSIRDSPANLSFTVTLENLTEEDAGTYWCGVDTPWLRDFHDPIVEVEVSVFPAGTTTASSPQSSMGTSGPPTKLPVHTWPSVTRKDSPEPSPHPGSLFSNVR
Assay: binding ELISA, antigen coated, anti-Fc HRP detection

B1: anti-CD300c monoclonal antibody CL8 (antibody, V domains shown)
VH: EVQLLESGGGLVQPGGSLRLSCAASGFTFSSYAMSWVRQAPGKGLEWVSAISGSGGSTYYADSVKGRFTISRNNSKNTLYLQMNSLRAEDTAVYYCARSGRYADLTSGGQGTLVTVSS
VL: QSVLTQPPSASGTPGQRVTISCSGSNSNIGNNYVSWYQQLPDTPPKLLIYDNNKRPSGVPDRFSGSKSGTSASLAISGLRSEDEADYYCSSYTSSSTVMFGGGTKLTVL
EC50: 49.7 µg/mL
